Assay results: patent publication US20150267232A1, “IN VIVO AND IN VITRO CARBENE INSERTION AND NITRENE TRANSFER REACTIONS CATALYZED BY HEME ENZYMES” (California Institute of Technology, priority 2012, published 2015)

Key:
[1] = Small-scale anaerobic C—H amination with purified enzymes, azide 1; type: biochemical
Procedure: Activities are presented in TTN. […] Yields and enantioselectivies determined by HPLC analysis. * (S−R)/(S+R). nd=not determined.
Enzymes used as purified catalysts were expressed as previously described (Lewis, J. C. et al., Proc. Natl. Acad. Sci. U.S.A. 106, 16550-16555 (2009)), and were purified by anion-exchange chromatography (for holoenzymes) or Ni-NTA chromatography (for isolated heme domains). Concentrations of P450 or P411 enzymes were determined as previously reported (Omura, T. & Sato, R., J. Biol. Chem. 239, 2370-2378 (1964); Vatsis, K. P. et al., J. Inorg. Biochem. 91, 542-553 (2002)). Small-scale reactions (400 μL) were conducted in 2 mL crimp vials containing degassed buffer (0.1 M potassium phosphate pH 8.0), enzyme (0.1-0.5% catalyst loading) and oxygen depletion system (10× stock solution containing 14,000 U/mL catalase, 1,000 U/mL glucose oxidase dissolved in 0.1 M KPi pH 8.0). Enzyme (P450 or P411) solution and oxygen depletion mixture were added to the vial with a small stir bar before crimp-sealing. […] Reactions were stirred at room temperature for 24 h under positive argon pressure.
Small-scale reactions (400 μL) were conducted in 2 mL crimp vials (Agilent Technologies, San Diego, Calif.) containing buffer (0.1 M potassium phosphate pH 8.0), enzyme (0.1-0.5% catalyst loading) and oxygen depletion system (10× stock solution containing 14,000 U/mL catalase, 1,000 U/mL glucose oxidase dissolved in 0.1 M KPi pH 8.0). Enzyme (P450 or P411) solution and oxygen depletion mixture were added to the vial with a small stir bar before crimp-sealing. […] In the meantime, the headspace of the sealed 2 mL reaction vial with the P450 solution was made anaerobic by flushing argon over the protein solution (with no bubbling). The buffer/reductant/glucose solution (270 μL) was syringed into the reaction vial with continuous argon purge of the vial headspace. An arylsulfonyl azide solution in DMSO (10 μL, 80 mM) was added to the reaction vial via a glass syringe, and the reaction was left stirring for 24 h at room temperature under positive argon pressure. […] Reactions were quenched by adding 30 μL 3 M HCl under argon. To the vials were then added acetonitrile (430 uL) and internal standard (o-toluenesulfonamide 10 mM in 50% acetonitrile 50% water, 1 mM final concentration). This mixture was then transferred to a microcentrifuge tube, and centrifuged at 17,000×g for 10 minutes. A portion (20 μL) of the supernatant was then analyzed by HPLC. For LC-MS analysis, the quenched reaction mixture was extracted twice with ethyl acetate (2×350 μL), dried under a light argon stream and resuspended in 50% water-acetonitrile (100 μL). For chiral HPLC the reactions were extracted as above with ethyl acetate, dried and resuspended in DMSO (100 μL) and then C18 purified as described above. The C18 purified material was dried, and resuspended in acetonitrile, and then injected onto the chiral HPLC system for analysis. Sultam formation was quantified comparison of integrated peak areas of internal standard and sultam at 220 nm to a calibration curve made using synthetically produced sultam and internal standard.
Purified enzymes were screened for activity in small scale reactions (400 μL) under anaerobic conditions as described above. Reactions were carried out using 0.5% mol of enzyme (10 μM) with respect to the triethylsulfonyl azide substrate 1 (2 mM). Standard reaction conditions described above were employed. Diethyl benzosultam product 3 (FIG. 18) was analyzed and quantified by reversed-phase HPLC (see above).
Small-scale reactions (400 μL total volume) were set up and worked up. Control reactions were performed with both the holoenzyme (BM3 with covalently linked reductase domain) and the isolated heme domain. […] Reactions of the complete system with heme domain (CS heme) included 2 mM Na2S2O4 rather than NADPH unless otherwise indicated in the table. […]

[2] = Whole-cell C—H amination of azide 1; type: cell-based, E. coli BL21(DE3); settings: intact E. coli cells
Procedure: Reaction conditions were as follows: 2 mM azide 1, 25 mM glucose, E. coli BL21(DE3) cells in M9-N minimal medium (OD600=30), 2.5% DMSO, oxygen depletion system (100 U ml^−1 glucose oxidase, 1400 U ml^−1 catalase) reacted for 24 hours under anaerobic conditions at 298 K. Yields determined by HPLC quantification.
(§1) Whole cell reactions used E. coli BL21(DE3) cells containing P450 or P411 catalysts, which were expressed and prepared as described elsewhere (Coelho, P. S. et al., Highly efficient carbene transfer to olefins catalyzed in vivo. Submitted (2013)). Following expression, cells were resuspended to an OD600 of 30 in M9 salts lacking NH4Cl (M9-N), and then degassed by sparging with argon in a sealed 6 mL crimp vial for at least 0.5 h. Separately, glucose (250 mM dissolved in 1×M9-N, 40 μL, or multiples thereof) was degassed by sparging with argon for at least five minutes. The oxygen quenching mixture was added to sealed 2 mL crimp vials containing stir bars and the headspace of the vials was purged with argon for five minutes at which time glucose, and then cells were added by syringe. Substrate (80 mM arylsulfonyl azide, 10 uL in DMSO) was added via syringe, and the reactions were stirred at room temperature for 24 h under positive argon pressure.
as §1, with “E.” for “Whole cell reactions used E.”, “catalysts” for “catalysts, which”, “Coelho,” for “(Coelho,”, “μL” for “uL”, “pressure. Reactions were quenched in a manner identical to reactions containing purified enzymes as described above. For chiral HPLC, the reactions were extracted and purified in an identical manner as for reactions that employed purified enzymes. Lyophilized intact cells containing sucrose as a cryoprotectant were prepared as described elsewhere (Coelho, P. S. et al., Highly efficient carbene transfer to olefins catalyzed in vivo. Submitted (2013)). The resulting cell powder, containing expressed ABC-CIS (26 mg) were added along with a stir bar to a 2 mL crimp vial and then sealed. The headspace of the vial was degassed, oxygen quenching system (40 μL) was added via syringe, followed by degassed glucose (250 mM, 40 μL), M9-N (310 μL), and finally substrate (80 mM 1, 10 μL). Lyophilized cell reactions were stirred for 24 h at room temperature, then quenched and analyzed as described above. […]” for “pressure.”
The preparative reaction was scaled up proportionally from small-scale reactions. E. coli BL21 cells containing ABC-CIS (OD600 30, 90 mL in M9-N) were sparged with argon for 45 minutes in a round bottom flask (250 mL) containing a stir bar. Separately, glucose solution (250 mM, 11.6 mL) was sparged with argon in a conical flask. The oxygen quenching mixture (10×, 11.6 mL) was degassed in a conical flask that was placed under high vacuum until slight foaming occurred (1-2 s) and then back-filled with argon; this sequence was repeated several times. Sparged glucose solution was then added to the anaerobic cell suspension via syringe, followed by the oxygen quenching system. Finally, substrate 1 (80 mM, 2.9 mL DMSO) was added dropwise via syringe, and the reaction was stirred for 24 h at room temperature. To quench the reaction, dilute HCl (3 M, 8.7 mL) and acetonitrile (125 mL) were added. […]

[3] = Intramolecular carbene C—H insertion, substrate 4.1a; type: biochemical; settings: 10 mM 4.1a, 10 uM P450, 10 mM Na2S2O4; product 4.2a
Procedure: Yield of product 4.22b was established after calibration with phenethyl alcohol as an internal standard. The reaction is not catalyzed by the WT-BM3 heme domain or hemin at 5% catalyst loading.
A representative procedure for P450-catalyzed C—H insertion is as follows: A vial containing WT-AxD (20 μL, 200 μM) was sealed with a teflon cap and the headspace of this vial was purged with argon for 5 min. Concurrently, a solution of sodium dithionite (11 mM in phosphate buffer pH=8) was degassed for a minimum of 5 min and 360 μL of this solution was transferred to the vial containing protein. The gas lines were disconnected from the vials. The substrate 4.1a or 4.1b was then added as a solution (20 μL, 200 mM). Final concentrations of all components were: 10 uM enzyme, 10 mM substrate, and 10 mM dithionite. […]
The mixture was extracted with 1 mL cyclohexane and analyzed by GC-MS or GC. GC-MS was performed on a Shimadzu TQ8030 GC-MS with ion count detector and J&W HP-5 column (30 m×0.32 mm, 0.25 μm film) using the following method: 90° C. (hold 2 min), 90-190° C. (20° C./min), and 190-230 (40° C./min)

[4] = OD600=30, 2 mM azide 1, 24 hours, anaerobic

Row | Molecule | TTN ([1]; 0.1 mol % catalyst loading (2 μM), 2 mM azide 1, 2 mM NADPH, benzosultam 3) | % ee ([1]; 0.1 mol % catalyst loading, (S−R)/(S+R), benzosultam 3) | TTN (C—H amination product 3) ([1]; catalyst loading 0.5 mol %, NADPH, anaerobic) | Yield sulfonamide (%) [2, 4] | Yield sultam (%) [2, 4] | TTN ([2]; anaerobic, added glucose) | % ee ([2]; (S − R)/(S + R)) | Yield % [3]
1 | ABC: P450BM3 variant: C400S (protein, listed as Bacillus megaterium, cytochrome P450NADPH-P-450 reductase precursor, cytochrome P450 (BM3), CYP102A1, P450BM3 variant: C400S) TIKEMPQPKTFGELKNLPLLNTDKPVQALMKIADELGEIFKFEAPGRVTRYLSSQRLIKEACDESRFDKNLSQALKFVRDFAGDGLFTSWTHEKNWKKAHNILLPSFSQQAMKGYHAMMVDIAVQLVQKWERLNADEHIEVPEDMTRLTLDTIGLCGFNYRFNSFYRDQPHPFITSMVRALDEAMNKLQRANPDDPAYDENKRQFQEDIKVMNDLVDKIIADRKASGEQSDDLLTHMLNGKDPETGEPLDDENIRYQIITFLIAGHETTSGLLSFALYFLVKNPHVLQKAAEEAARVLVDPVPSYKQVKQLKYVGMVLNEALRLWPTAPAFSLYAKEDTVLGGEYPLEKGDELMVLIPQLHRDKTIWGDDVEEFRPERFENPSAIPQHAFKPFGNGQRASIGQQFALHEATLVLGMMLKHFDFEDHTNYELDIKETLTLKPEGFVVKAKSKKIPLGGIPSPSTEQSAKKVRKKAENAHNTPLLVLYGSNMGTAEGTARDLADIAMSKGFAPQVATLDSHAGNLPREGAVLIVTASYNGHPPDNAKQFVDWLDQASADEVKGVRYSVFGCGDKNWATTYQKVPAFIDETLAAKGAENIADRGEADASDDFEGTYEEWREHMWSDVAAYFNLDIENSEDNKSTLSLQFVDSAADMPLAKMHGAFSTNVVASKELQQPGSARSTRHLEIELPKEASYQEGDHLGVIPRNYEGIVNRVTARFGLDASQQIRLEAEEEKLAHLPLAKTVSVEELLQYVELQDPVTRTQLRAMAAKTVCPPHKVELEALLEKQAYKEQVLAKRLTMLELLEKYPACEMKFSEFIALLPSIRPRYYSISSSPRVDEKQASITVSVVSGEAWSGYGEYKGIASNYLAELQEGDTITCFISTPQSEFTLPKDPETPLIMVGPGTGVAPFRGFVQARKQLKEQGQSLGEAHLYFGCRSPHEDYLYQEELENAQSEGIITLHTAFSRMPNQPKTYVQHVMEQDGKKLIELLDQGAHFYICGDGSQMAPAVEATLMKSYADVHQVSEADARLWLQQLEEKGRYAKDVWAG | 32 | 20% | 49 | 80% | 6.7% | 29 | 16% | 
2 | WT-AxH: WT heme domain + C400H (protein, synthetic cytochrome P450-BM3 variant WT-AxH (heme), WT heme domain + C400H) TIKEMPQPKTFGELKNLPLLNTDKPVQALMKIADELGEIFKFEAPGRVTRYLSSQRLIKEACDESRFDKNLSQALKFVRDFAGDGLFTSWTHEKNWKKAHNILLPSFSQQAMKGYHAMMVDIAVQLVQKWERLNADEHIEVPEDMTRLTLDTIGLCGFNYRFNSFYRDQPHPFITSMVRALDEAMNKLQRANPDDPAYDENKRQFQEDIKVMNDLVDKIIADRKASGEQSDDLLTHMLNGKDPETGEPLDDENIRYQIITFLIAGHETTSGLLSFALYFLVKNPHVLQKAAEEAARVLVDPVPSYKQVKQLKYVGMVLNEALRLWPTAPAFSLYAKEDTVLGGEYPLEKGDELMVLIPQLHRDKTIWGDDVEEFRPERFENPSAIPQHAFKPFGNGQRAHIGQQFALHEATLVLGMMLKHFDFEDHTNYELDIKETLSLKPKGFVVKAKSKKIPLGGIPSPST |  |  |  |  |  |  |  | 0%
3 | WT-AxK: WT heme domain + C400K (protein, synthetic cytochrome P450-BM3 variant WT-AxK (heme), WT heme domain + C400K) TIKEMPQPKTFGELKNLPLLNTDKPVQALMKIADELGEIFKFEAPGRVTRYLSSQRLIKEACDESRFDKNLSQALKFVRDFAGDGLFTSWTHEKNWKKAHNILLPSFSQQAMKGYHAMMVDIAVQLVQKWERLNADEHIEVPEDMTRLTLDTIGLCGFNYRFNSFYRDQPHPFITSMVRALDEAMNKLQRANPDDPAYDENKRQFQEDIKVMNDLVDKIIADRKASGEQSDDLLTHMLNGKDPETGEPLDDENIRYQIITFLIAGHETTSGLLSFALYFLVKNPHVLQKAAEEAARVLVDPVPSYKQVKQLKYVGMVLNEALRLWPTAPAFSLYAKEDTVLGGEYPLEKGDELMVLIPQLHRDKTIWGDDVEEFRPERFENPSAIPQHAFKPFGNGQRAKIGQQFALHEATLVLGMMLKHFDFEDHTNYELDIKETLSLKPKGFVVKAKSKKIPLGGIPSPST |  |  |  |  |  |  |  | 0%
